Substitutions are numbered along the chain they refer to. Numbers in names are those of the source.
B1: A297V2-Fc (Fc fusion)
chain: QVQLVESGGGVVQPGGSLRLSCAASGFTFSRYGMKWVRQAPGKGLEWVSTINSHGDTTYYADSVKGRFTISRDNAKNSLYLQMNSLRAEDTALYYCLRIDYSDYSSRGQGTMVTVSSEPKSADKTHTCPPCPAPELLGGPSVFLFPPKPKDTLMISRTPEVTCVVVDVEHEDPEVKFNWYVDGVEVHNAKTKPREEQYNSTYRVVSVLTVLHQDWLNGKEYKCKVSSKAFPAPIEKTISKAKGQPREPQVYTLPPSRDELTKNQVSLTCLVKGFYPSDIAVEWESNGQPENNYKTTPPVLDSDGSFFLYSKLTVDKSRWQQGNVFSCSVMHEALHNHYTQKSLSLSPGK
B2: A297V4-Fc (Fc fusion)
chain: B1 chain with Q1E, V11L, T57S, A75S, S78T, L93V, R98K, M112L
B3: Ab9 (antibody, human IgG1, kappa, L234A L235A, V domains shown)
VH: QMQLVQSGAEVKKPGASVTVSCRASGYSFADHFIHWVRQAPGQGFQWMGWINPNRGVTHHAQDFQGRVAMTRDMSTDTVYMELTSLRSDDTAVYYCARDESLTARPYYFYGFDVWGQGTLVTVSS
VL: DIQMTQSPSSVSASVGDRVTITCRASQGISSWLAWYQQKPGKAPKLLIYAASSLQSGVPSRFSGSGSGTDFTLTISSLQPEDFATYYCQQANSFPPAFGQGTKVEIKR
notes: Fully human, IgG1 / kappa; also called anti-FAP antibody Ab9
B4: Ab10 (antibody, human IgG1, kappa, L234A L235A, V domains shown)
VH: B3 VH with M2V, V5Q, A9V, E100A
VL: B3 VL
notes: Fully human, IgG1 / kappa; also called anti-FAP antibody Ab10; Ab110
B5: Ab10-A12V2-2 (bispecific antibody, human IgG1, kappa, L234A L235A)
heavy: not shown
light: DIQMTQSPSSVSASVGDRVTITCRASQGISSWLAWYQQKPGKAPKLLIYAASSLQSGVPSRFSGSGSGTDFTLTISSLQPEDFATYYCQQANSFPPAFGQGTKVEIKRTVAAPSVFIFPPSDEQLKSGTASVVCLLNNFYPREAKVQWKVDNALQSGNSQESVTEQDSKDSTYSLSSTLTLSKADYEKHKVYACEVTHQGLSSPVTKSFNRGEC
notes: divalent for CD40
B6: 28H1 (antibody, V domains shown)
VH: EVQLLESGGGLVQPGGSLRLSCAASGFTFSSHAMSWVRQAPGKGLEWVSAIWASGEQYYADSVKGRFTISRDNSKNTLYLQMNSLRAEDTAVYYCAKGWLGNFDYWGQGTLVTVSS
VL: EIVLTQSPGTLSLSPGERATLSCRASQSVSRSYLAWYQQKPGQAPRLLIIGASTRATGIPDRFSGSGSGTDFTLTISRLEPEDFAVYYCQQGQVIPPTFGQGTKVEIK
notes: also called control anti-FAP antibody 28H1
B7: Ab10-A12V2-4 (bispecific antibody, human IgG1, kappa, L234A L235A)
heavy: not shown
light: B5 light
notes: Ab10 IgG1 (L234A/L235A) with two A12V2 VHHs in tandem on each heavy chain C-terminus; tetravalent for CD40

Columns and labels:
[1] = target: T1, human CD40 on cells (Raji cells; HEK-Blue CD40L cells; human dendritic cells) (human, UniProt P25942 21-277); experiment: cell-based or functional assay
[2] = target: T2, human CD40 with C-terminal Flag tag on HEK293 cells (human, UniProt P25942 21-277); experiment: FACS, HEK293 cells transiently expressing human CD40
T2 construct: whole, on cells; also called HEK293 cells highly expressing CD40; cell strain highly expressing human CD40
Protocol: The ability of the humanized antibodies to bind to cells highly expressing the human antigen protein CD40 was measured by FACS. HEK293 cells were transiently transfected with CD40 plasmids (CD40 cDNA ORF Clone, Human, C-[…] (Flag®) Tag; Sino Biological; HG10774-CF), yielding HEK293 cells highly expressing CD40. The resulting cells were resuspended in the flow cytometry staining buffer ([…]), and the test antibodies that had been serially diluted to different concentrations were added. After 1 h of incubation on ice, the cells were washed with PBS and centrifuged at 400 g for 5 min. A goat anti-human Fc antibody labeled with the fluorescent group Alexa Fluor 647 was added as a secondary antibody, and the cells were stained in an ice bath for 1 h. After two washes with PBS, the fluorescent signals on the cell surface were detected by FACS. The humanized antibodies of the present disclosure all have relatively high affinities for the cell strain highly expressing CD40.

[3] = target: T3, h-FAP-His (human, UniProt Q12884 26-760); experiment: ELISA, human FAP-His coated
T3 construct: range 26-760; Bought recombinant protein with a His tag; also called human FAP-His protein; FAP recombinant protein with a His tag
Protocol: A FAP recombinant protein with a His tag was directly used for coating. After the antibodies were added, a secondary antibody (an HRP-conjugated anti-human IgG antibody) and the HRP substrate TMB were added to measure the binding activity of the antibodies to the antigen. The assay comprises the following steps: A […] solution of human FAP-His protein was used to coat a 96-well microplate at 100 μL/well, and the plate was incubated overnight at 4° C. After a thorough wash, a blocking solution was added at 200 μL/well, and the plate was incubated at room temperature for 2 h. After a thorough wash, dilutions of test anti-FAP antibodies were added at 100 μL/well. The plate was incubated at room temperature for 1 h. After a thorough wash, a 1:20,000 dilution of an HRP-labeled goat anti-human IgG secondary antibody was added at 100 μL/well. The plate was incubated at room temperature for 1 h. After a thorough wash, TMB was added at 100 μL/well, and the plate was incubated in the dark for 15 min. 0.16 M sulfuric acid was added at 50 μL/well. The OD value at 450 nm was measured on a Thermo MultiSkanFc microplate reader, and the binding EC₅₀ values of the anti-FAP antibodies were calculated.

[4] = target: T4, human FAP on CHO cells (human, UniProt Q12884 1-760); experiment: FACS, CHO cells overexpressing human FAP
T4 construct: whole, on cells; also called CHO cell line overexpressing human FAP; CHOK1/FAP
Protocol: (§1) A FACS assay was used to measure the binding properties of anti-FAP antibodies on cells. The assay comprises the following steps: A CHO cell line overexpressing human FAP was constructed and plated (1E5/well). The test antibodies were added at 100 μL/well. The highest concentration was 100 nM. A 5-fold dilution was performed, yielding 8 concentrations in total. The plate was incubated at 4° C. for 1 h. Anti-hIgG Alexa Fluor-647 was added as a secondary antibody in the ratio of 1:500. The plate was incubated at 4° C. for 30 min, and a FACS assay was performed. Antibodies that bind to FAP can mark cells. The relation between the percentage of the marked cells that over-express human FAP among all cells and the antibody concentration is shown in FIG. 1. The relation between the percentage of the marked cells that over-express mouse FAP among all cells and the antibody concentration is shown in FIG. 2.

[5] = target: T3, h-FAP-His; experiment: SPR, antibody captured by anti-human IgG Fc, h-FAP-His analyte
Protocol: A CM5 sensor chip was used, and HBS-EP+buffer solution (10 mM HEPES, 150 mM NaCl, 3 mM EDTA, 0.05% surfactant P20) was used as the mobile phase. An anti-human IgG (Fc) antibody was made into a […] solution in a 10 mM sodium acetate buffer solution (pH 5.0) and immobilized by amino coupling. The test antibodies were diluted in HBS-EP+buffer solution and captured by the anti-human IgG (Fc) antibody on chip channels. h-FAP-His was dissolved in HBS-EP+buffer solution to prepare an analyte, and the analyte was serially diluted 2-fold. The diluted antibodies were passed through the experimental and reference channels at a flow rate of […], with 1 min of binding and 15 min of disassociation. 10 mM Glycine pH 1.5 was passed as a regeneration buffer solution for 30 s at a flow rate of […]. Data were analyzed. […] However, the binding affinities of the other anti-FAP antibodies obtained by screening at the same time in the present disclosure, such as Ab2, Ab4 and Ab5 (sequences not shown), for the antigen are lower than that of 28H1.

[6] = target: T5, mouse FAP on CHOK1 cells (mouse, UniProt P97321 1-761); experiment: FACS, percent of marked cells overexpressing mouse FAP, anti-hIgG Alexa Fluor-647 secondary antibody
T5 construct: whole, on cells; also called cell surface mouse FAP
Protocol: as §1

[7] = target: T4, human FAP on CHO cells; experiment: FACS, CHOK1 cells stably expressing human FAP
Protocol: (§2) In this experiment, the binding of the anti-FAP/CD40 bispecific antibodies to stably transfected strains of CHOK1 cells that highly express human FAP, cynomolgus monkey FAP and mouse FAP was measured by FACS.

[8] = target: T5, mouse FAP on CHOK1 cells; experiment: FACS, CHOK1 cells stably expressing mouse FAP
Protocol: as §2

[9] = target: T6, cynomolgus monkey FAP on CHOK1 cells (cynomolgus monkey); experiment: FACS, CHOK1 cells stably expressing cynomolgus monkey FAP
T6 construct: whole, on cells
Protocol: as §2

[10] = target: T7, human FAP protein (Acro, FAP-H5244) (human, UniProt Q12884 26-760); experiment: SPR (Biacore 8K), antibody captured by anti-human IgG Fc, human FAP analyte
T7 construct: Bought protein
Protocol: (§3) The affinities of the anti-FAP/CD40 bispecific antibodies for their antigens, the human FAP protein (Acro, FAP-H5244) and the human CD40 protein (Acro, CD0-H5228), were measured by SPR (GE Healthcare; Biacore 8K). A CM5 sensor chip was used, and HBS-EP+buffer solution (10 mM HEPES, 150 mM NaCl, 3 mM EDTA, 0.05% surfactant P20) was used as the mobile phase. An anti-human IgG (Fc) antibody was immobilized by amino coupling. The test antibodies were separately diluted in HBS-EP+buffer solution as ligands and captured by the anti-human IgG (Fc) antibody on chip channels. Antigenic proteins of different species were used as analytes.

[11] = target: T1, human CD40 on cells (Raji cells; …); experiment: FACS, HEK-Blue CD40L cells expressing human CD40
Protocol: (§4) The binding of the bispecific antibodies to cell surface CD40 was measured by FACS, including HEK-Blue™CD40L cells highly expressing human CD40 (Invivogen, Cat #hkb-cd40), and HEK293 cells that were transiently transfected with cynomolgus monkey CD40 plasmids (Sino Biological, cat #CG90970-UT) and thus made to highly express cynomolgus monkey CD40. […] See FIGS. 9A, 9B and 11 and Table 21 for details.

[12] = target: T8, cynomolgus monkey CD40 on HEK293 cells (cynomolgus monkey, UniProt G7PG38 21-278); experiment: FACS, HEK293 cells transiently expressing cynomolgus monkey CD40
T8 construct: whole, on cells
Protocol: as §4

[13] = target: T9, h-CD40-His (human, UniProt P25942 21-193); experiment: SPR (Biacore 8K), antibody captured by anti-human IgG Fc, human CD40 analyte
T9 construct: range 21-193; Bought His-tagged recombinant protein; also called human CD40 protein (Acro, CD0-H5228); human CD40
Protocol: as §3

T1 sequence (P25942 21-277): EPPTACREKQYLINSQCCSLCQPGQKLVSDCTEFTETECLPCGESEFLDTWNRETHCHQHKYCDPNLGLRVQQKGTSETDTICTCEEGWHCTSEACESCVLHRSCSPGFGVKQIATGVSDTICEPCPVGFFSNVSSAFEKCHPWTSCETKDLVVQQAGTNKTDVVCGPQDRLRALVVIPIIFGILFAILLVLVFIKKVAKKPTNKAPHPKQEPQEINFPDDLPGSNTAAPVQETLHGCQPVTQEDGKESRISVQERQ
T9 sequence (P25942 21-193 limits assumed): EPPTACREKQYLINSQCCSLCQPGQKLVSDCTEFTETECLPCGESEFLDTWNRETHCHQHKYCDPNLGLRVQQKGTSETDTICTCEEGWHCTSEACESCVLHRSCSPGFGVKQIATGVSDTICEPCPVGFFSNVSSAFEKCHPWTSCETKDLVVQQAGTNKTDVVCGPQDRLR
T2 sequence (P25942 other isoform, or with tags, fused parts or gaps): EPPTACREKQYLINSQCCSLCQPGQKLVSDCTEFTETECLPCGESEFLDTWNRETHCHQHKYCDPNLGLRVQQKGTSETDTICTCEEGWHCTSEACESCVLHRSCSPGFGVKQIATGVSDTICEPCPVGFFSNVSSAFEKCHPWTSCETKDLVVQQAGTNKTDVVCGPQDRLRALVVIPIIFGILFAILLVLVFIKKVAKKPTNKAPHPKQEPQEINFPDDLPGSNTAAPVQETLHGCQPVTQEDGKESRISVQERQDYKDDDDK
T5 sequence (P97321 whole entry): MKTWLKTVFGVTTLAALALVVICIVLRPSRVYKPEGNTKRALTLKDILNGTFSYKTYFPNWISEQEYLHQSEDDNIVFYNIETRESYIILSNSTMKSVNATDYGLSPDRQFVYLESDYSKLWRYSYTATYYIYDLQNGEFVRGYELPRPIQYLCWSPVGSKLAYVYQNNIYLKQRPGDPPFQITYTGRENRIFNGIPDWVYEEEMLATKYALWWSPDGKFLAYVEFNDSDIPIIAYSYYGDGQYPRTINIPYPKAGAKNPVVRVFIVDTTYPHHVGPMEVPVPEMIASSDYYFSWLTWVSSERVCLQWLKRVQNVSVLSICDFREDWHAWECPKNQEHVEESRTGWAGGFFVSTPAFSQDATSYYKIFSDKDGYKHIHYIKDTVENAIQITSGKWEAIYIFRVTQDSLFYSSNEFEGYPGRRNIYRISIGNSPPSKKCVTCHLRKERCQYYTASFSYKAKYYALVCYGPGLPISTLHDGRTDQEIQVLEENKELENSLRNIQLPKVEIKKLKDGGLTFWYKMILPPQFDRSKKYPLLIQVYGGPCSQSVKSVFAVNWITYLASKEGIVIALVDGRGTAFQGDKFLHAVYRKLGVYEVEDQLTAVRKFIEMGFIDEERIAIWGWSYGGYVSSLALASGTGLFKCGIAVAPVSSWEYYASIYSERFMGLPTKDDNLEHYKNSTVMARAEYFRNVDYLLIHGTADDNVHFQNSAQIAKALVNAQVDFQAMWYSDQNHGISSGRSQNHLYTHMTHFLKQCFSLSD

Binder | EC50 [4] [ng/mL] | Kd [5] [nM] | Ratio of KD of 28H1 to KD of test antibody [5] | Ratio of Kd of 28H1 to Kd of test antibody [5] | koff [5] [s⁻¹] | kon [5] [M⁻¹ s⁻¹] | EC50 (read off the curve) [6] [ng/mL] | EC50 [7] [nM] | Emax (MFI) [7] [MFI] | EC50 [8] [nM] | Emax (MFI) [8] [MFI] | EC50 [9] [nM] | Emax (MFI) [9] [MFI] | other results
B1 |  |  |  |  |  |  |  |  |  |  |  |  |  | FcγRIIb-mediated activation of HEK-Blue CD40L cells, EC50 [1]: 0.005 nM; FcγRIIb-mediated activation of HEK-Blue CD40L cells, Emax (relative fluorescence intensity) [1]: 20 relative fluorescence intensity; EC50 [2]: 1.07 nM; Emax (MFI) [2]: 12800 MFI
B2 |  |  |  |  |  |  |  |  |  |  |  |  |  | FcγRIIb-mediated activation of HEK-Blue CD40L cells, EC50 [1]: 0.038 nM; FcγRIIb-mediated activation of HEK-Blue CD40L cells, Emax (relative fluorescence intensity) [1]: 13.3 relative fluorescence intensity; EC50 [2]: 2.7 nM; Emax (MFI) [2]: 8260 MFI
B3 | 0.368 | 0.306 | 4.3 | 3.54 | 7.19e-05 | 235000 | ~5 |  |  |  |  |  |  | EC50 [3]: 101000 ng/mL
B4 | 0.432 | 0.245 | 5.3 | 3.5 | 7.28e-05 | 297000 | ~2 | 1.41 | 72000 | 10.4 | 26400 | 7.34 | 64600 | EC50 [3]: 92000 ng/mL; Kd [10]: 0.34 nM; koff [10]: 7.39e-05 s⁻¹; kon [10]: 217000 M⁻¹ s⁻¹
B5 |  |  |  |  |  |  |  | 2.72 | 74000 | 4.32 | 19500 | 5.65 | 45000 | EC50 [11]: 2.4 nM; Emax (MFI) [11]: 7570 MFI; EC50 [12]: 2.76 nM; Emax (MFI) [12]: 6610 MFI
B6 | 0.784 | 1.31 | 1 | 1 | 0.000255 | 195000 | ~1 |  |  |  |  |  |  | 
B7 |  |  |  |  |  |  |  | 2.57 | 64900 | 4.43 | 19000 | 2.26 | 43200 | EC50 [11]: 0.79 nM; Emax (MFI) [11]: 4640 MFI; EC50 [12]: 3.24 nM; Emax (MFI) [12]: 6540 MFI; Kd [10]: 0.294 nM; koff [10]: 5.14e-05 s⁻¹; kon [10]: 175000 M⁻¹ s⁻¹; Kd [13]: 29 nM; koff [13]: 0.002 s⁻¹; kon [13]: 69000 M⁻¹ s⁻¹
